The target of this experiment is natural cellular receptor for the adenoviral fiber on 293 cells (human (293 human line)) (UniProt P78310). As to the kind of experiment: cell-based or functional assay.

For one substance, degree of inhibition of infection of 293 cells with AdLacZ by recombinant Ad5 knob results are on record in patent publication US20040038205A1.

Chain of UniProt P78310 (P78310 20-365): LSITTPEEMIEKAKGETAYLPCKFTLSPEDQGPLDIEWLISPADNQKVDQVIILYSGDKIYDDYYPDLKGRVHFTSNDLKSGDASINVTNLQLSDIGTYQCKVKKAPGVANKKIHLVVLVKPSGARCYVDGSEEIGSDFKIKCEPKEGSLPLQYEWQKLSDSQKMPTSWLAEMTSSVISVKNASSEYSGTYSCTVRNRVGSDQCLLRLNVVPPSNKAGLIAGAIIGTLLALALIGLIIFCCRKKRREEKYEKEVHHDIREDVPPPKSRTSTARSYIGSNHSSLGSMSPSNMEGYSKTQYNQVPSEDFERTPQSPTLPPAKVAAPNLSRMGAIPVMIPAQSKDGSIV

Regarding “native Ad5 fiber carried by the recombinant virus AdLacZ (from UniProt P11818 1-581)”, the degree of inhibition of infection of 293 cells with AdLacZ by recombinant Ad5 knob at 100 µg/ml (LacZ-positive cells) was determined as 95%.
